The source of these data is PMC10674851, “Discovery and Characterization of a Dual-Function Peptide Derived from Bitter Gourd Seed Protein Using Two Orthogonal Bioassay-Guided Fractionations Coupled with In Silico Analysis” (Pharmaceuticals, 2023).

No end group written: not given here.

For data set [1] the following is noted: in vivo, cited from earlier work. From the text: Simultaneously, ACE2, a homologue of ACE, counteracts the vasoconstrictor effects by converting Ang-II into Ang 1–7 (a vasodilator). ACE2 also transforms Ang-I into Ang 1–9, and ACE hydrolyzes Ang 1–9 into Ang 1–7, resulting in a vasodilation effect. However, Ang 1–7 has a short half-life of only half an hour in the human body, and i ...

For data set [2], the target named is T1, angiotensin-I-converting enzyme (ACE) from rabbit lungs (Oryctolagus cuniculus, UniProt P12822).
T1 construct: angiotensin-I-converting enzyme (ACE) from rabbit lungs; purchased Sigma-Aldrich Co. (Saint Louis, MO, USA); host or cells: rabbit lung tissue
T1 sequence (P12822 34-1310): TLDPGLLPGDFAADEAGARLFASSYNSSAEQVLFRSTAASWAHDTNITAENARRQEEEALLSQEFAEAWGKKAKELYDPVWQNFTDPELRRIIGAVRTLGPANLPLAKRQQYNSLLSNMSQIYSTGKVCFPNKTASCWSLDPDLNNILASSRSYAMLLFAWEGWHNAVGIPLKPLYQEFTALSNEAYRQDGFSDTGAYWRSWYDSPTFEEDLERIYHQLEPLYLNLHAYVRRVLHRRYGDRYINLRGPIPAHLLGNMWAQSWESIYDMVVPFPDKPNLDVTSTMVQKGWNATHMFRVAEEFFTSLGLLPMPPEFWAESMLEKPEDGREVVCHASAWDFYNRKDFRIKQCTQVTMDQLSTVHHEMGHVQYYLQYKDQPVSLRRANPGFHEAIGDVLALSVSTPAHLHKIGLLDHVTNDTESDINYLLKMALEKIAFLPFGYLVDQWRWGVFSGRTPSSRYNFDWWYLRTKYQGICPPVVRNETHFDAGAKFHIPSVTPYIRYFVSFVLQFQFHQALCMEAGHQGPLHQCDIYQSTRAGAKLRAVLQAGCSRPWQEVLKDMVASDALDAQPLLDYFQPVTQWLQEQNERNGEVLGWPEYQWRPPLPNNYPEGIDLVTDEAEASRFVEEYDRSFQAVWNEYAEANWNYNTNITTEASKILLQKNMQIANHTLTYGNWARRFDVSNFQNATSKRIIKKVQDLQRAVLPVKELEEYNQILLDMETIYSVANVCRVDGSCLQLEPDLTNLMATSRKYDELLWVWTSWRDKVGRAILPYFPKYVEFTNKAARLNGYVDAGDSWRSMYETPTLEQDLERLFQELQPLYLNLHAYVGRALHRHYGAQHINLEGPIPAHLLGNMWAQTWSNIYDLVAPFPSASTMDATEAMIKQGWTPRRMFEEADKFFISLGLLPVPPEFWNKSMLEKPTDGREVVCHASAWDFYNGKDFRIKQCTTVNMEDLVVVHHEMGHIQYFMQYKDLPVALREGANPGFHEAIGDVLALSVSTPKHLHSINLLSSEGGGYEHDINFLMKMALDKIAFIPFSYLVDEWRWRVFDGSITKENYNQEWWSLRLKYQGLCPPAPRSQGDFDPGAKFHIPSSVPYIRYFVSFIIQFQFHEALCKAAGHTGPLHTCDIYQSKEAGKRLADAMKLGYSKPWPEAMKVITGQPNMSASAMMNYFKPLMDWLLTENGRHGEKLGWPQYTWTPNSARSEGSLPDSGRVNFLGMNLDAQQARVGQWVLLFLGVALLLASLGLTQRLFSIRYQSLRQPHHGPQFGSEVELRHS
Kind of data set: ACE inhibitory (ACEI) activity assay, HHL substrate, hippuric acid by RP-HPLC. It is filed as biochemical. Particulars: synthetic AW6, seven logarithmic concentrations, non-linear interpolation; mean ± SD, triplicate.
Method: The ACEI activity was studied according to Cushman and Cheung [43], with a few modifications. First, 10 µL of the testing sample was premixed with 30 µL of hippuryl–histidine–leucine (HHL) and incubated at 37 °C for 5 min. Then, 20 µL of ACE (0.05 mU/µL) was added. Afterward, the reaction was held statically at 37 °C for 30 min and continued with shaking at 200 rpm for another 30 min. Then, 60 µL of 1 N hydrogen chloride was used to quench the reaction, and 10 µL of 0.25 µg/µL ferulic acid was mixed for an internal standard. […] The area under the curve of hippuric acid (HA) was observed using UV–Vis RP-HPLC at a wavelength of 228 nm, 1 mL/min steady flow rate, and 15 min of isocratic elution (26% ACN with 0.1% TFA in deionized water). The inhibitory activity of ACE was determined using the following equation:(2) ACE inhibitory activity %=1−HAinhibitor/HAno inhibitor×100%,
The HA(inhibitor) and HA(no inhibitor) were the areas under the curve of the hippuric acid acquired in the presence and absence of an inhibitor. The half-maximal inhibitory concentration of ACE inhibition (ACEI IC50) was calculated using a non-linear interpolation constructed with a minimum of six logarithmic concentrations of the testing sample.

The target of data set [3] is T2, recombinant human dipeptidyl peptidase-IV (DPP4) (Homo sapiens, UniProt P27487).
T2 construct: purchased Sigma-Aldrich Co. (Saint Louis, MO, USA)
The experiment in a line: DPP4 inhibitory (DPP4I) activity assay, GP-pNA substrate, absorbance 405 nm. It is filed as biochemical. Conditions: seven logarithmic concentrations, non-linear interpolation; mean ± SD, triplicate. The procedure:
The DPP4 inhibitory activity was determined as described by Nong, N. T. P. et al., with a few modifications. The testing samples, GP-pNA, linagliptin, and DPP4 were dissolved in 0.1 M Tris-HCl buffer, pH 8.0. Briefly, 25 µL of the testing sample was premixed with 25 µL of 1.6 mM GP-pNA and incubated at 37 °C for 10 min. Then, 50 µL of DPP4 (0.5 U/µL) was added. The reaction was continued for 60 min at 37 °C. The enzymatic reaction was quenched by adding 100 µL of 1 M sodium acetate, pH 4.0. The absorbance of pNA, as a product of the DPP4 and GP-pNA reactions, was monitored using a PowerWave XS (Biotek®, Winooski, VT, USA) 96-well microplate reader at a wavelength of 405nm. DPP4 inhibitory activity was calculated by the following equation:(3) DPP4 inhibitory activity %=1−pNAinhibitor/pNA no inhibitor×100%,
The pNA(inhibitor) and pNA(no inhibitor) were the absorbances of the pNA (λ = 405 nm) acquired in the presence and absence of an inhibitor, respectively. The half-maximal inhibitory concentration of DPP4 inhibition (DPP4I IC50) value was calculated using a non-linear interpolation for at least six logarithmic concentrations of the inhibitor.

T2 sequence (P27487 whole entry): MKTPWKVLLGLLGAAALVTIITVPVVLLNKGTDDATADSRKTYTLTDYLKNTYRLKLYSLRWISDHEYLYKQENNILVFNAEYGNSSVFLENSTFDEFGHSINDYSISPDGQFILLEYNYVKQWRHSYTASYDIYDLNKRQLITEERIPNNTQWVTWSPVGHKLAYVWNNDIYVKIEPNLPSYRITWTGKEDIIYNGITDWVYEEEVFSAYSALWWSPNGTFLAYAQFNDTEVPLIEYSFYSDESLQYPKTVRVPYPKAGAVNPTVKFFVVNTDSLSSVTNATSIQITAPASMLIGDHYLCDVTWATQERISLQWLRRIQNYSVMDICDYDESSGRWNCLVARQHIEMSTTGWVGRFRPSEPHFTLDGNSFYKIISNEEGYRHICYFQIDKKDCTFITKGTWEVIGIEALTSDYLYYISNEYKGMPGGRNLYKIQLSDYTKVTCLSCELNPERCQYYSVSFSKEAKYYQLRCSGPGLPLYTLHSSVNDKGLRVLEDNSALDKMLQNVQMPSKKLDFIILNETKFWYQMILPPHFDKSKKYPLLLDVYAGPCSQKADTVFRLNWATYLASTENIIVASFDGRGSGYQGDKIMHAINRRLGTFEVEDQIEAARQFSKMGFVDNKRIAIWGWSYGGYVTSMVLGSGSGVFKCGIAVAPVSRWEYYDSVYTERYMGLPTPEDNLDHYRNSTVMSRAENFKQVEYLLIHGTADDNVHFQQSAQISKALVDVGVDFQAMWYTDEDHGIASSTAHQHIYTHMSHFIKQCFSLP

On to “Ang 1–7: vasodilator formed from Ang-II by ACE2”, for which the half-life result in data set [1] (human) is on record as “half an hour”. For the same substance, in data set [1], the “time of peak concentration in plasma” value was “one hour”.
The IC50 is the concentration that inhibits the measured activity by half. For the substance APLVSW [AW6, APLVSW], the IC50 was found to be 9.6 ± 0.3 µM in data set [2] and 145 ± 4.4 µM in data set [3].
